From paper doi:10.1101/600692v2

Assays:
purified protein [1] = substrate: O=C(O)c1ccc(O)cc1; assay: purified protein; details: with glutamate and ATP
purified protein [2] = substrate: C=C(O[C@H]1C=CC=C(C(=O)O)[C@@H]1O)C(=O)O; assay: purified protein; details: with glutamate and ATP; isochorismate made from chorismate by ICS1

B1: PBS3 (AvrPphB SUSCEPTIBLE3) (Arabidopsis thaliana) (protein)
chain: MKPIFDINETFEKQLKDLTSNVKSIQDNLLEEIITPNTKTEYLQRFLIDRFDKELFKKNVPIVSYEDIKPYLDRVVNGESSDVISARTITGFLLSSGTSGGAQKMMPWNNKYLDNLTFIYDLRMQVITKHVKGVEEGKGMMFLFTKQESMTPSGLPARVATSSYFKSDYFKNRPSNWYYSYTSPDEVILCPNNTESLYCHLLCGLVQRDEVVRTGSIFASVMVRAIEVLKNSWEELCSNIRSGHLSNWVTDLGCQNSVSLVLGGPRPELADTIEEICNQNSWKGIVKRLWPNTKYIETVVTGSMGQYVPMLNYYCNDLPLVSTTYGSSETTFGINLDPLCKPEDVSYTFMPNMSYFEFIPMDGGDKNDVVDLEDVKLGCTYEPVVTNFAGLYRMRVGDIVLVTGFYNNAPQFKFVRRENVVLSIDSDKTNEEDLFKAVSQAKLVLESSGLDLKDFTSYADTSTFPGHYVVYLEVDTKEGEEKETAQFELDEEALSTCCLVMEESLDNVYKRCRFKDGSIGPLEIRVVRQGTFDSLMDFFISQGASTGQYKTPRCIKSGKALQVLETCVVAKFFSI
For B1, the Km (purified protein [1]) was 311.54 µM, the kcat (purified protein [1]) was 13.46 min^-1 (printed as V/Et) and the Km (purified protein [2]) was 14.90 µM. The kcat (purified protein [2]) was 472.29 min^-1 (printed as V/Et).
